Measured values taken from US20220396612A1 (UNIVERSIT DE TOURS, published 2022).

B1: monoclonal antibody ‘14D6’ derived from hybridoma 14D6 (antibody, V domains shown)
VH: DVQLQESGPGLVKPSQSLSLTCSVTGYSITSGYYWNWIRQFPGNKLEWMGYISYDGSNNYNPSLKNRISITRDTSKNQFFLKLNSVTTEDTATYYCARWVGDWYFDVWGAGTTVTVSS
VL: DIVLTQSPASLAVSLGQRATISCRASKSVSPSGYSYMHWYQQKPGQPPKLLIYLASNLESGVPARFSGSGSGTDFTLNIHPVEEEDAATYYCQHSRELPLTFGAGTKLELK
B2: monoclonal antibody ‘9B1’ derived from hybridoma 9B1 (antibody, V domains shown)
VH: DVQLQESGPGLVKPSQSLSLTCSVTGYSITSGYYWNWIRQFPGNKLEWMGYISYDGSNNYNPSLKNRISITRDTSKNQFFLKLNSVTTEDTATYYCARVDGNSWYFDVWGAGTTVTVSS
VL: DIQMTQSSSSFSVSLGDRVTITCKASEDIYNRLAWYQQKPGNAPRLLISGATSLETGVPSRFSGSGSGKDYTLSITSLQTEDVATYYCQQYWSILLTFGAGTKLELK
notes: also called ‘91B1’

What was measured:
[1] = biological target: T1, virus-like particles (VLPs) of BK polyomavirus VP-1 protein, serotype Ia (BK virus (BKPyV), serotype Ia, UniProt P03088 1-361); assay: ELISA on coated VLP;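 also: hybridoma culture supernatants (mouse antibodies) tested on wells coated with 1 µg/mL VLPs, peroxidase anti-mouse detection with OPD, background from PBS-coated control wells subtracted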
T1 construct: self-assembled native VLPs coated on ELISA plates; also called VLP Ia; BKV VP-1, serotype Ia
T1 chain: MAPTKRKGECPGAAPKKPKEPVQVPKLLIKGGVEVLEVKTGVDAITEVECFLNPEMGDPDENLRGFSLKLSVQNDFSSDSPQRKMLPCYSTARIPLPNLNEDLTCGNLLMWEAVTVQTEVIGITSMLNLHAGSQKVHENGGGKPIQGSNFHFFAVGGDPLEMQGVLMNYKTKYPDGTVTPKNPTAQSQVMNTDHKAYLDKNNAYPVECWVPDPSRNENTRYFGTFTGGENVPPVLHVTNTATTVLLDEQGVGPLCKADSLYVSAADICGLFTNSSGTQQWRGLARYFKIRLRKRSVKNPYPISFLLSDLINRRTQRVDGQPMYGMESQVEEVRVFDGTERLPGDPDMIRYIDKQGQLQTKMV
Method: (§1) To do this, the VLPs produced were deposited at a concentration of 1 μg/mL in PBS and incubated overnight at +4° C. The wells were then blocked for 1 h at +37° C. with a PBS/FCS (phosphate-buffered saline/fetal calf serum) mixture. After dilution in a dilution buffer containing FCS, PBS and Tween® 20, the various hybridoma culture supernatants were added for 1 h at +37° C. The wells were washed four times in a row with Wash Buffer and a secondary anti-mouse antibody coupled to peroxidase was added to the 1:2000 dilution for 1 h at +37° C. The wells were washed four more times and the substrate (OPD (ortho phenylene diamine)+H₂O₂) was added for 30 min at room temperature. A stop solution (H₂SO₄ 4N) was then added and each well was read by measuring the absorbance at 492 nm with a spectrophotometer. The value obtained for the average of the control wells (PBS in the first step) is subtracted from the optical density values obtained for each well.

[2] = biological target: T2, virus-like particles (VLPs) of BK polyomavirus VP-1 protein, serotype Ib2 (BK virus (BKPyV), serotype Ib2, PA …, UniProt P03088 1-362); assay: ELISA on coated VLP;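 also: hybridoma culture supernatants (mouse antibodies) tested on wells coated with 1 µg/mL VLPs, peroxidase anti-mouse detection with OPD, background from PBS-coated control wells subtracted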
T2 construct: native VLPs; also the immunogen; also called VLP Ib2; BK Ib2
T2 chain: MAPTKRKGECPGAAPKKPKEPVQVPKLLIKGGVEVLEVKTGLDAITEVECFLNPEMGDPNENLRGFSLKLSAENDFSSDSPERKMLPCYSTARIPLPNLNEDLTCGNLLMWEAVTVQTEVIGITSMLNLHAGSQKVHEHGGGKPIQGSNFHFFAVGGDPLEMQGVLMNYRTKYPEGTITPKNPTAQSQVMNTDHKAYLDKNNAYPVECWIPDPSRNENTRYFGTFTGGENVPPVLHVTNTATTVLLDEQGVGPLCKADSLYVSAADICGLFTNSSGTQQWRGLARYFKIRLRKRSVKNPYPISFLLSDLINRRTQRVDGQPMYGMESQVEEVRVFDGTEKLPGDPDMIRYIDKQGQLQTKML
Method: as §1

[3] = biological target: T3, virus-like particles (VLPs) of BK polyomavirus VP-1 protein, serotype II (BK virus (BKPyV), serotype II, UniProt P14996 1-362); assay: ELISA on coated VLP;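 also: hybridoma culture supernatants (mouse antibodies) tested on wells coated with 1 µg/mL VLPs, peroxidase anti-mouse detection with OPD, background from PBS-coated control wells subtracted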
T3 construct: native VLPs; also called VLP II
T3 chain: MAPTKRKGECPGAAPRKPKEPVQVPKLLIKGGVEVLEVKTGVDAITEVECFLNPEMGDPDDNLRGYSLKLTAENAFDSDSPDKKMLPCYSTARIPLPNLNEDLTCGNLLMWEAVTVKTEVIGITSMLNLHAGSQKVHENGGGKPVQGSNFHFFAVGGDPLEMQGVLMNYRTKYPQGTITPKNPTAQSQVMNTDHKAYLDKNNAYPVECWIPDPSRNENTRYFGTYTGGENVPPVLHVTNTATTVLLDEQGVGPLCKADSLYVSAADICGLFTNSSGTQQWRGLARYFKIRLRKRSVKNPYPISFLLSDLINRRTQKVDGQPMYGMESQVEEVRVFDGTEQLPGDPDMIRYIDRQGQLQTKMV
Method: as §1

[4] = biological target: T4, virus-like particles (VLPs) of BK polyomavirus VP-1 protein, serotype III (BK virus (BKPyV), serotype III, UniProt P14996 1-362); assay: ELISA on coated VLP;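 also: hybridoma culture supernatants (mouse antibodies) tested on wells coated with 1 µg/mL VLPs, peroxidase anti-mouse detection with OPD, background from PBS-coated control wells subtracted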
T4 construct: native VLPs; also called VLP III
T4 chain: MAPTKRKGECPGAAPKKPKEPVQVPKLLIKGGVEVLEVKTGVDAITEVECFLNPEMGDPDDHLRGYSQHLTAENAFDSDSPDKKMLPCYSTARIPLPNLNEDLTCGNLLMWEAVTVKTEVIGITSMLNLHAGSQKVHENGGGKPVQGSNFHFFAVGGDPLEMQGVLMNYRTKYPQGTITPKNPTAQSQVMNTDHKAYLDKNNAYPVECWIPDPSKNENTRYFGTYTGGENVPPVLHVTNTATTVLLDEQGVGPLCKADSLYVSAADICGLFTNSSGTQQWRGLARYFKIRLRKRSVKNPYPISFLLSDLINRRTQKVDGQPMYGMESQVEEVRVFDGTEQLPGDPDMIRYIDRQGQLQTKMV
Method: as §1

[5] = biological target: T5, virus-like particles (VLPs) of BK polyomavirus VP-1 protein, serotype IV (BK virus (BKPyV), serotype IV, UniProt P14996 1-362); assay: ELISA on coated VLP
T5 construct: native VLPs; also called VLP IV
T5 chain: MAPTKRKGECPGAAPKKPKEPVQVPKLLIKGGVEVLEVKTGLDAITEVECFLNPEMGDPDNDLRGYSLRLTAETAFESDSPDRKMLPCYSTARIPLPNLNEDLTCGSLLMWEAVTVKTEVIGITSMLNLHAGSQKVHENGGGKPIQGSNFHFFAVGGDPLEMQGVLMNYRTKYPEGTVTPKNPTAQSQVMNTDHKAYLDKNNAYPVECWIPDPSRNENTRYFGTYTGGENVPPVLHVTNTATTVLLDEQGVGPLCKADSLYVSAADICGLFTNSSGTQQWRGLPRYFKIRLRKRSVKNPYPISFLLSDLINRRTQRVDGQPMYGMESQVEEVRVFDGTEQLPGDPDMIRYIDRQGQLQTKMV
Method: as §1

[6] = biological target: T6, virus-like particles (VLPs) of JC polyomavirus VP-1 protein (JC virus (JCPyV), UniProt P03089 1-354, Assembled into virus-like particles (many VP-1 copies); the letters give one VP-1 chain.); assay: ELISA on coated JCPyV VLPs
T6 construct: Expressed in insect cells by baculovirus; VLPs coated on ELISA plates; also called JCPyV VLPs; JCPyV
T6 sequence (P03089 whole entry): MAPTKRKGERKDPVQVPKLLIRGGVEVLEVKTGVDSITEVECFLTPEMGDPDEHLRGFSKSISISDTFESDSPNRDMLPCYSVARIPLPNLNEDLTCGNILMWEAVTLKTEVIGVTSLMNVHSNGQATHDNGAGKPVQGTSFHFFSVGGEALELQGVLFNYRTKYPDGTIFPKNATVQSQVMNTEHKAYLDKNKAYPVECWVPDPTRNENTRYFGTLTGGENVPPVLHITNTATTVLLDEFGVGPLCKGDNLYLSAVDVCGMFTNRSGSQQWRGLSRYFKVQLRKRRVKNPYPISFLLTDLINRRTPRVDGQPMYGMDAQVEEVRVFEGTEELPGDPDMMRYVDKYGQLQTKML

[7] = biological target: T2, virus-like particles (VLPs) of BK …; assay: ELISA on coated VLP (detection limit OD>0.5)
Method: as §1

[8] = biological target: T6, virus-like particles (VLPs) of JC …; assay: ELISA on coated VLP (detection limit OD>0.5)
Method: as §1

[9] = biological target: T1, virus-like particles (VLPs) of BK …; assay: ELISA on not denatured VLP (threshold OD>0.5)
Method: (§2) The wells were then blocked for 1 hour at +37° C. with a PBS/SVF mixture. After dilution in a dilution buffer containing SVF, PBS and Tween® 20, the individual culture supernatants or purified antibodies were added for 1 hour at +37° C. The wells were washed four times in a row with Wash Buffer and a secondary anti-mouse peroxidase antibody was added to the 1/2000 dilution for 1 hour at +37° C. The wells were washed again four times in a row and the substrate was added for 30 minutes at room temperature. A stop solution was added and then each well was read by measuring the absorbance at 492 nm with a spectrophotometer. The value obtained for the average of the control wells (PBS in the first step) was subtracted from the optical density values obtained for each well (detection threshold: OD>0.5).

[10] = biological target: T2, virus-like particles (VLPs) of BK …; assay: ELISA on not denatured VLP (threshold OD>0.5)
Method: as §2

[11] = biological target: T3, virus-like particles (VLPs) of BK …; assay: ELISA on not denatured VLP (threshold OD>0.5)
Method: as §2

[12] = biological target: T5, virus-like particles (VLPs) of BK …; assay: ELISA on not denatured VLP (threshold OD>0.5)
Method: as §2

Binder | OD 492 nm [1] [OD] | OD 492 nm [2] [OD] | OD 492 nm [3] [OD] | OD 492 nm [4] [OD] | OD 492 nm [5] [OD] | binding result [6] | OD 492 nm [7] [OD] | OD 492 nm [8] [OD] | OD 492 nm [9] [OD] | OD 492 nm [10] [OD] | OD 492 nm [11] [OD] | OD 492 nm [12] [OD]
B1 | 3.24 | 3.24 | 3.08 | 2.55 | 2.62 | no binding (tested: detection limit: OD>0.5) | 1.55 | 0.112 | 4.04 | 1.55 | 1.66 | 2.63
B2 | 3.13 | 3.3 | 1.75 | 1.74 | 2.52 | no binding (tested: detection limit: OD>0.5) | 1.41 | 0.119 | 4.21 | 1.41 | 1.07 | 2.12
